Reference: publication PMC2680492 (The Journal of neuroscience : the official journal of the …, 2008)
Each block holds one binder with its values, some of them ahead of it.

How the values were obtained:
Test in all cases: pull-down
[1] = molecular target: T1, His×6-DD2-FLAG (human, UniProt Q9UBN7 440-840)
T1 sequence (looked up): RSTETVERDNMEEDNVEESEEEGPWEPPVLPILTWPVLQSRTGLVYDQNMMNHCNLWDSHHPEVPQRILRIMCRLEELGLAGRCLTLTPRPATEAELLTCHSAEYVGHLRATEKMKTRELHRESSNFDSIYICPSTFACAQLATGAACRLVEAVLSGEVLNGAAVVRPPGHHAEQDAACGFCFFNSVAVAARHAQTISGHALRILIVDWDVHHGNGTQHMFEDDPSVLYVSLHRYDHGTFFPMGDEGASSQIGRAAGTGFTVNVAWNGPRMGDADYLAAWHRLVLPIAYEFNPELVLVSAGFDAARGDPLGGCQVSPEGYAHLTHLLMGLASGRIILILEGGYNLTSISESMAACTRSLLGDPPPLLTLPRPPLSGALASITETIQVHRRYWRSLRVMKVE

[2] = molecular target: T2, His×6-HDAC6-FLAG (human, UniProt Q9UBN7 1-1215)
T2 sequence (looked up): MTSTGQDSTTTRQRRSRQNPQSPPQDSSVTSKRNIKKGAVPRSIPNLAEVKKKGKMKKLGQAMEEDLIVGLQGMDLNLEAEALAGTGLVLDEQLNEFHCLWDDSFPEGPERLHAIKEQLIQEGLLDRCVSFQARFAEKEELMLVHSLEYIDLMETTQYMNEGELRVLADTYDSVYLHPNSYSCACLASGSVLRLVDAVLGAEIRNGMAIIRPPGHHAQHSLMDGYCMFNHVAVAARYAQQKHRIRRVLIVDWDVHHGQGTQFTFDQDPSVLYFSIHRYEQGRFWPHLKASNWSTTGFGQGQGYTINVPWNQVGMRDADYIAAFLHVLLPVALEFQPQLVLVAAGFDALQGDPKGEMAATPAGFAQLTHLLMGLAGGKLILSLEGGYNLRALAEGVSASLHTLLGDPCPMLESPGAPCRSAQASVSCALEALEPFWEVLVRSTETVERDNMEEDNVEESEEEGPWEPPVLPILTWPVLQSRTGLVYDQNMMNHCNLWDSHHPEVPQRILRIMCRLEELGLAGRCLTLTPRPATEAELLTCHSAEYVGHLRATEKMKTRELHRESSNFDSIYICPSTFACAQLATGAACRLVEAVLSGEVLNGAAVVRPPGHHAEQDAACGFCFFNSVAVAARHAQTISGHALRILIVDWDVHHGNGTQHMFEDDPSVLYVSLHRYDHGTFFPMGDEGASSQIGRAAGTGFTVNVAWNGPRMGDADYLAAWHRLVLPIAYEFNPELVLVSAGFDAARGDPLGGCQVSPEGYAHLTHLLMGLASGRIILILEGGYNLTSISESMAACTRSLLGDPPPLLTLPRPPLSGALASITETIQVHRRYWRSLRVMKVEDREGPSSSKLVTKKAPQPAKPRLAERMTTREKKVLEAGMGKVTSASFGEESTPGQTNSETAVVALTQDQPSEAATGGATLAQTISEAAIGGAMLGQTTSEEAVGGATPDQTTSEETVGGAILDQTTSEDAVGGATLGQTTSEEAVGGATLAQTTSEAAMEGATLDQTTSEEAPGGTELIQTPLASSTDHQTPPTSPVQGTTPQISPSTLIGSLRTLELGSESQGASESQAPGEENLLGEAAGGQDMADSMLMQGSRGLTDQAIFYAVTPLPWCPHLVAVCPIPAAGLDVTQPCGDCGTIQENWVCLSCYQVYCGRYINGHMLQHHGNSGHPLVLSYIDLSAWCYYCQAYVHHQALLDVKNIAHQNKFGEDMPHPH

[3] = molecular target: T3, His×6-DD1-FLAG (human, UniProt Q9UBN7 106-439)
T3 sequence (looked up): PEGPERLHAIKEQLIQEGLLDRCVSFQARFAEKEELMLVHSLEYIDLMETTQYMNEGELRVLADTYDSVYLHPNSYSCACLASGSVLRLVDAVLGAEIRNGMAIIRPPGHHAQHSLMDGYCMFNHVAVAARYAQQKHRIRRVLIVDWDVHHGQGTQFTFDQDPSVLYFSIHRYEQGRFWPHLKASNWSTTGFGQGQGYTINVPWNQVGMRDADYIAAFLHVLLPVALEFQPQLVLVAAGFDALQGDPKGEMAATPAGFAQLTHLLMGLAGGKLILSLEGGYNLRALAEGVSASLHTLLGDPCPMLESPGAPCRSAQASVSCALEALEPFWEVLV

- binding result [1]: binds
- binding result [2]: binds
B1: GST-tagged parkin RING2 domain (R2) (domain or fragment, human, UniProt O60260 395-465, looked up)
chain: ERAAEQARWEAASKETIKKTTKPCPRCHVPVEKNGGCMHMKCPQPQCRLEWCWNCGCEWNRVCMGDHWFDV

- binding result [2]: binds
- binding result [3]: binds
B2: GST-tagged parkin RING1 domain (R1) (domain or fragment, human, UniProt O60260 217-310, looked up)
chain: TSDKETSVALHLIATNSRNITCITCTDVRSPVLVFQCNSRHVICLDCFHLYCVTRLNDRQFVHDPQLGYSLPCVAGCPNSLIKELHHFRILGEE

- binding result [2]: binds
- binding result [3]: binds
B3: GST-tagged parkin Linker domain (L) (domain or fragment, human, UniProt O60260 77-237, looked up)
chain: GQEMNATGGDDPRNAAGGCEREPQSLTRVDLSSSVLPGDSVGLAVILHTDSRKDSPPAGSPAGRSIYNSFYVYCKGPCQRVQPGKLRVQCSTCRQATLTLTQGPSCWDDVLIPNRMSGECQSPHCPGTSAEFFFKCGAHPTSDKETSVALHLIATNSRNIT
